Experiments:
[1] = test system: cutaneous allergic reactions following the intradermal administration of antigen; assay: LPR skin test, intradermal challenge with dust mite antigen; format: in vivo, human; details: IL-1 receptor 1.65 mg/ml injected with dust mite antigen, versus allergen without receptor
Method: The LPR skin test is performed by interadermally injecting subjects on the forearm with test solution. The test solution contains the challenging antigen. Controls receive test solution without challenging antigen. The injection site is thereafter examined at intervals up to 96 hours. The diameters of the reactions are measured in two perpendicular directions and the characteristics are noted at different times.
The LPR gradually subsides over a 24 hour period. At the peak, the injection site is characterized by erythema, warmth, edema, pruritus and/or tenderness. The LPR is more extensive in area and produces greater discomfort then the early phase reaction.
Dust mite antigen is used (D. pteronyssinus; Allergy Laboratories of Ohio; 30,000 AU/ml). The soluble IL-1 receptor (Immunex Corp.; Seattle, Wash.) stock concentration is 10 mg/ml. Eight test solutions are prepared for intradermal injections (0.01 ml each) using TB syringes and disposable needles. Four intradermal test sites are used on each forearm.
Two test solutions are controls. […] Three concentrations of the antigen are evaluated (final concentrations: 1:500,000, 1:200,000, and 1:100,000).
The area of the wheal reaction is marked on the skin with a ball-point pen. […] The wheal reactions are then calculated by counting the squares within the pen-marked area.

[2] = test system: conjunctival allergic response to ryegrass allergen; assay: conjunctival provocation test (CPT) with ryegrass allergen; format: in vivo, human
Method: Ten ryegrass-sensitive patients with hay fever conjunctivitis and ten nonallergic subjects without ocular disease are challenged by weekly topical administration of ryegrass allergen for 4 weeks with 10 μl of four different allergen doses (10,000, 32,000, 100,000, and 320,000 BU/ml of ryegrass allergen) (Pharmalgen, Pharmacia Diagnostics AB, Uppsala, Sweden). Albumin diluent (Pharmacia), is used to dilute the allergen. Five of the patients and five of the nonallergic subjects are given allergen premixed with IL-1 receptor. The other five patients and subjects are given allergen without IL-1receptor. Importantly, the allergic patients and control subjects have no clinical symptoms before ocular provocation. […]
The challenge solution is administered to the contralateral eye in both patients and control subjects. Clinical conjunctival evaluation with tear-fluid cytology is assessed in both eyes before administration of allergen or buffer 20 minutes, one hour, and six hours after challenge. In both the allergic patients and control subjects, the following ocular symptoms, both subjective and objective, are evaluated by a physician: hyperemia, edema, tearing, and itching. Each symptom is scored from 0 to 4+ and graded as follows: 0—absent; 1+—mild; 2+—moderate; 3+—severe; and 4+—very severe. […]

[3] = test system: early and late phase response in nasal tissue of patients with seasonal allergic rhinitis; assay: nasal challenge with ragweed or mixed-grass pollen antigen; format: in vivo, human; details: prechallenge nasal lavages with IL-1 receptor versus buffer, 1000 PNU antigen, late and rechallenge reactions
From the text: Sixteen patients with seasonal allergic rhinitis due to grass or ragweed pollens are selected.
Ragweed and mixed-grass pollen extracts (timothy, orchard, June and meadow grass in a ratio of 3:2:3:2) are purchased from Greer Laboratories (Lenoir, N.C.); lactated Ringer's solution and oxymetazoline hydrochloride (Afrin, Schering, Kenilworth, N.J.) are purchased from the hospital pharmacy.
At the time of the challenge, oxymetazoline hydrochloride is sprayed into the nose (two sprays per nostril) of all patients to prevent mucosal congestion, which would interfere with the collection of nasal secretions.
Eight of the sixteen patients receive four prechallenge nasal lavages with IL-1 receptor diluted in buffer; the remaining […] receive lavages with buffer only. Thereafter, challenges with 1000 PNU of antigen are undertaken.
The patients maintain a symptom score sheet during the challenge procedure. In addition to the number of sneezes, a six-point scale from 0 to 5 (with 0 equal to no symptoms and 5 equal to severe symptoms) is used to assess nasal secretion, blockage, and itching. The degree of blockage is, of course, underestimated on those score sheets because of the pretreatment with oxymetazoline hydrochloride. The presence or absence of symptoms correlates with the presence or absence of mediators during the late reaction.

[4] = test system: late phase reaction in lung tissue of patients with allergic bronchial asthma; assay: allergen inhalation (dust mite extract) with bronchoalveolar lavage; format: in vivo, human; details: allergen premixed with IL-1 receptor versus allergen alone
Method: In this example, twenty patients with documented allergic bronchial asthma participate. Allergen inhalation is performed by inhaling dust mite extract (see Example 1, above) at 15 minute intervals using a Wiesbadnener Doppelspray (8 L/min air flow, nebulizer output approximately 0.2 ml/min). Ten patients received the allergen premixed with IL-1 receptor; the other ten patients received the allergen alone.
Eosinophil granule major basic protein levels are markedly elevated in the lavage fluid of these asthmatic patients. Peripheral blood eosinophil counts decrease during late phase responses to antigen challenge at the time eosinophil levels in the pulmonary tissues increases, presumably because of margination and emigration in the lungs.

alloreactivity in vivo = details: systemic administration; cited from earlier work
[5] = test system: experimental autoimmune encephalomyelitis; details: interperitoneal administration; cited from earlier work

B1: IL-1 receptor: soluble IL-1 receptor (Immunex Corp.; Seattle, Wash.), stock concentration 10 mg/ml (protein, UniProt P14778 18-336, looked up)
extracellular domain: LEADKCKEREEKIILVSSANEIDVRPCPLNPNEHKGTITWYKDDSKTPVSTEQASRIHQHKEKLWFVPAKVEDSGHYYCVVRNSSYCLRIKISAKFVENEPNLCYNAQAIFKQKLPVAGDGGLVCPYMEFFKNENNELPKLQWYKDCKPLLLDNIHFSGVKDRLIVMNVAEKHRGNYTCHASYTYLGKQYPITRVIEFITLEENKPTRPVIVSPANETMEVDLGSQIQLICNVTGQLSDIAYWKWNGSVIDEDDPVLGEDYYSVENPANKRRSTLITVLNISEIESRFYKHPFTCFAKNTHGIDAAYIQLIYPVTNFQK
modifications: extracellular domain
notes: soluble IL-1 receptor (Immunex Corp; Seattle, Wash.), stock concentration 10 mg/ml
- reduction of wheal at peak of LPR ([1]; LPR peak between eight and 13 hours): at least 50%
- wheal area, early phase ([1]; twenty minutes post injection): reduced
- immediate hypersensitivity ocular reaction (clinical response) ([2]; allergic subjects, allergen premixed with IL-1 receptor versus allergen without receptor, all allergen doses): significantly reduced response
- increase in eosinophils in the tear fluid ([2]; highest allergen dose, 6 hours after provocation (late phase), allergic patients): not seen
- nasal symptoms [3]: inhibits
- release of histamine and other inflammatory mediators [3]: inhibits
- activation of mast cells, infiltration of the tissues by eosinophils and other inflammatory cells, tissue damage and dysfunction (histologic data) [4]: markedly suppressed
- eosinophil emigration in the lungs (bronchoalveolar lavage) [4]: suppression
- survival of heart allografts (alloreactivity in vivo): prolonged
- severity of the disease [5]: reduced
